In assay [1] the target is Tpm3.1-enveloped filamentous β-actin (human) (UniProt P60709). Nature of the assay: stopped-flow light scattering; 4 μM NM-2B0 mixed with 0.5–4 μM bare actin or actin-Tpm complex, light scattering at 405 nm; 20 °C; 20 mM MOPS pH 7.0, 100 mM KCl, 5 mM MgCl2; no nucleotide; k+A from the slope, k−A from the y intercept, KA = k−A/k+A.
The target in assay [2] is Tpm1.12-enveloped filamentous β-actin (human | rat) (UniProt P60709). The description is as above.
The target in assay [3] is filamentous β-actin (human) (UniProt P60709). Nature of the assay: co-sedimentation; 10 μM β-actin preincubated with 0–10 μM Tpm for 30 min at room temperature; 20 mM MOPS pH 7.0, 5 mM MgCl2, 100 mM KCl; SDS-PAGE densitometry of supernatant and pellet; Hill fit, apparent constants (K50%).
For assay [4], the target named is acto-NM-2B (filamentous β-actin with NM-2B–HMM) (human) (UniProt P60709). The assay is described as follows: co-sedimentation; 6:1 acto–Tpm mixture (6 μM β-actin, 1 μM Tpm) with 0–16 μM NM-2B–HMM, 30 min; 20 mM MOPS pH 7.0, 5 mM MgCl2, 50 mM KCl; pelleted 20 min at 100,000 × g; Hill fit.

Regarding “single-headed construct NM-2B0 (motor domain of human NM-2B0, residues 1–782, two Dictyostelium discoideum α-actinin repeats, C-terminal octahistidine tag) (from UniProt P35580 1-782) (domain or fragment)”, the results for the Kd in assay [1] and in assay [2] were 30 nM and 80 nM, respectively.
Consider Tpm1.8cy (b.–.b.d) (natural protein), for which the values for the Kd in assay [3] and in assay [4] were 100 nM and less than 100 nM, respectively.
